{"source": "patent US20210371503A1", "target": "prefusion stabilized SARS-CoV-2 S ectodomain (SARS-CoV-2) (UniProt P0DTC2)", "assay": "assay not stated; row Binding Affinity Spike Trimer, construct not given", "data": [{"substance": "REGN10933 (antibody)", "values": [{"measurement": "Kd", "value": 3, "unit": "nM"}]}]}
